The target of test [1] is T1, Activin A (UniProt P08476 311-426).
T1 sequence (looked up): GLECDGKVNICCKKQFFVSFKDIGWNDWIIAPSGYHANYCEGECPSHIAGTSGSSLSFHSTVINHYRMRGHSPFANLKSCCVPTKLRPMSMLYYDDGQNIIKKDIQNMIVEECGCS
The test can be described thus: cell-based or functional assay.

The target of test [2] is T2, Activin B (UniProt P09529 293-407).
T2 sequence (looked up): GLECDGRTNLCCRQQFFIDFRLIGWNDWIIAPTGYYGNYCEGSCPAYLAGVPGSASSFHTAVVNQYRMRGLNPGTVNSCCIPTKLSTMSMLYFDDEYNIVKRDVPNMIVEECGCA
Put plainly: cell-based or functional assay.

Test [3] deals with T3, GDF-11 (UniProt O95390 299-407).
T3 sequence (looked up): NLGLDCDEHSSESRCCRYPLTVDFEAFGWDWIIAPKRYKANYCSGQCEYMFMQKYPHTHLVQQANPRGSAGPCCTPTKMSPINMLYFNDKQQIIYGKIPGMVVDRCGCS
Put plainly: cell-based or functional assay.

The target in test [4] is T4, BMP-9 (UniProt Q9UK05 320-429).
T4 sequence (looked up): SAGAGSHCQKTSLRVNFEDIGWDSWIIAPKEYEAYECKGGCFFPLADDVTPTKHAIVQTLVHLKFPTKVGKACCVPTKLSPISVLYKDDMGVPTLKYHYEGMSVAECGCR
The test can be described thus: cell-based or functional assay.

For test [5], the target named is T1, Activin A. Put plainly: SPR (Biacore 8K), Fc protein captured on anti-human IgG, ligand injected. The method, then: (§1) The Cytiva Biacore 8k was used to measure the kinetics of the interactions between the ActRII- and chimera-Fc proteins and Activin A/Activin B/growth differentiation factor 8 (GDF-8)/GDF-11/BMP-9/BMP-10. Series S CM4 Sensor Chips were immobilized with anti-human capture antibody using the reagents and protocol in the Biacore Human Antibody Capture Kit (GE Life Sciences). Briefly, anti-human IgG was diluted to 25 μg/mL in immobilization buffer. The carboxylated surface of the sensor was activated by injecting a mixture of EDC and NHS. The anti-human IgG was injected into the activated sensor chip flow cells at 10 μL/min for a total of 7 minutes until the chip reached an immobilization level of 3000 resonance units (RU). Ethanolamine was injected to deactivate the sensor surfaces. The chip has 8 flow cells to be used for binding analysis, each with an in-line reference surface to subtract instrument noise and non-specific binding to the sensor chip. The ActRII- and chimera-Fc proteins were captured in their own flow cell to allow for a maximum analyte binding response of 20-30 RU. This was done by injecting 10-20 μL of the ActRII- and chimera-Fc proteins into the flow cells at a concentration of 2 μg/mL until 60-90 RU was captured. Ligand at a single concentration was injected at […] for 60 seconds and then allowed to dissociate under buffer flow for no less than 5 minutes. After the cycle completed, captured protein was stripped from the chip with an injection of 3 M magnesium chloride, the regeneration buffer provided with the Biacore Human Antibody Capture Kit. Each ligand was injected in a concentration series, including a buffer only 0 nM concentration to serve as a double reference for subtracting out instrument noise. The data were analyzed using the Biacore Insight Evaluation Software.
(In SPR one partner is held on a chip, and binding of the other changes the refractive index at the surface.)

In test [6] the target is T2, Activin B. Described as above. The protocol:
as §1

Test [7] concerns the target T5, growth differentiation factor 8 (GDF-8) (UniProt O14793 267-375).
T5 construct: also called myostatin
T5 sequence (looked up): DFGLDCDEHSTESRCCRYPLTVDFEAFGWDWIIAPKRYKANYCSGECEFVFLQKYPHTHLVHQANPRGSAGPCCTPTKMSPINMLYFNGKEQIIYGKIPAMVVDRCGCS
The test is described as above. The protocol: as §1

Test [8] has as its target T3, GDF-11. The test is described as above. The protocol:
as §1

Test [9] deals with T4, BMP-9. The description is as above. The protocol: as §1
The next test has as its target T6, BMP-10 (UniProt O95393 317-424).
T6 sequence (looked up): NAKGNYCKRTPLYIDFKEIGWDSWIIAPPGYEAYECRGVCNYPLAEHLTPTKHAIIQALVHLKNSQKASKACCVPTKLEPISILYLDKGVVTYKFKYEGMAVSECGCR
The test is described as above. The protocol:
as §1

Test [10] has as its target T1, Activin A. The test can be described thus: cell-based or functional assay. This is another data set of the same source.
The target of test [11] is T2, Activin B. Put plainly: cell-based or functional assay. This is another data set of the same source.
For test [12], the target named is T3, GDF-11. The test can be described thus: cell-based or functional assay. This is another data set of the same source.
The target in test [13] is T4, BMP-9. Put plainly: cell-based or functional assay. The source holds these as a separate data set.

Where two headings read alike, the source gives them in different places. Where only a bound is given, the exact number is not on record here.

B1: ActRIIA-A1 (SEQ ID NO: 104) chimera-Fc protein (Fc fusion)
chain: GRGEAETRECLFFNANWEKDRTNQTGVEPCYGDKDKRRHCFATWKNISGSIEIVKQGCWLDDINCYDRTDCVEKKDSPEVYFCCCEGNMCNEKFSYFPEMEVTQPTS
notes: Tested as chimera-Fc protein; not shown: linker (if any) and Fc domain
For the molecule B1, the “IC50, SBE-luciferase reporter in HEK293 cells” value (“IC50, SBE-luciferase reporter” below) with Activin A [1] was determined as 640 ng/mL; with Activin B [2] it was 210 ng/mL; in the test with GDF-11 [3] it was 240 ng/mL. For the same molecule, the “IC50, BRE-luciferase reporter in C2C12 cells” value (shortened to “IC50, BRE-luciferase reporter”) in the test with BMP-9 [4] stood at 50 µg/mL. Moreover, the Kd was 0.0703 nM with Activin A [5]; 0.0199 nM with Activin B [6]; 0.203 nM in test [7]; less than 1 pM with GDF-11 [8]; 62 nM with BMP-9 [9]; 0.0663 nM with BMP-10.

B2: ActRIIB-B7 (SEQ ID NO: 115) chimera-Fc protein (Fc fusion)
chain: GRGEAETRECIYYNANWELERTNQSGLERCEGEQDKRLHCYASWRNSSGTIELVKKGCWLDDFNCYDRQECVATEENPQVYFCCCEGNFCNEKFSYFPEAGGPEVTYEPPPTAPT
notes: as for B1
Regarding B2, the “IC50, SBE-luciferase reporter” value in the test with Activin A [10] turned out to be 67 ng/mL; with Activin B [11], 120 ng/mL; with GDF-11 [12], 150 ng/mL. Also, the “IC50, BRE-luciferase reporter” value with BMP-9 [13] is 0.032 µg/mL. The Kd with Activin A [5] was less than 0.001 nM; with Activin B [6], less than 0.001 nM; in test [7] it was 0.00346 nM; with GDF-11 [8], less than 1 pM; with BMP-9 [9] it was 0.0202 nM; in the test with BMP-10 it was less than 0.001 nM.

B3: ActRIIA-A3 (SEQ ID NO: 106) chimera-Fc protein (Fc fusion)
chain: GAILGRSETQECLFFNANWEKDRTNQTGVEPCEGEQDKRRHCFATWKNISGSIEIVKQGCWLDDINCYDRTDCVEKKDSPEVYFCCCEGNMCNEKFSYFPEMEVTQPTS
notes: as for B1
As to B3, the “IC50, SBE-luciferase reporter” value with Activin A [1] is 630 ng/mL; with Activin B [2], 240 ng/mL; with GDF-11 [3] it was 190 ng/mL. The “IC50, BRE-luciferase reporter” value with BMP-9 [4] stood at 12 µg/mL. In addition, the Kd is 0.0357 nM with Activin A [5]; 0.0755 nM with Activin B [6]; 0.0977 nM in test [7]; less than 1 pM with GDF-11 [8]; 18 nM in the test with BMP-9 [9]; 0.0289 nM with BMP-10.

B4: ActRIIA-B1B7 (SEQ ID NO: 101) chimera-Fc protein (Fc fusion)
chain: GAILGRSETQECIYYNANWEKDRTNQTGVEPCYGDKDKRRHCFATWKNISGSIEIVKQGCWLDDINCYDRTDCVEKKDSPEVYFCCCEGNMCNERFTHLPEMEVTQPTS
notes: Tested as chimera-Fc protein; also called ActRIIA-B1β7; not shown: linker (if any) and Fc domain
B4: the “IC50, SBE-luciferase reporter” value is 1400 ng/mL with Activin A [1], 250 ng/mL in the test with Activin B [2] and 390 ng/mL with GDF-11 [3]. Also, the “IC50, BRE-luciferase reporter” value in the test with BMP-9 [4] is more than 50 µg/mL. Besides, the Kd with Activin A [5] is 0.0217 nM; with Activin B [6] it was 0.0249 nM; in [7], 0.0898 nM; in the test with GDF-11 [8], less than 1 pM; in the test with BMP-9 [9] it was 77.2 nM; with BMP-10, 0.2 nM.

B5: ActRIIA-A5 (SEQ ID NO: 107) chimera-Fc protein (Fc fusion)
chain: GAILGRSETQECLFFNANWEKDRTNQTGVEPCYGDKDKRRHCFATWKNISGSIEIVKQGCWLDDFNCYDRQECVEKKDSPEVYFCCCEGNMCNEKFSYFPEMEVTQPTS
notes: as for B1
For the molecule B5, the “IC50, SBE-luciferase reporter” value came to 300 ng/mL with Activin A [1], 73 ng/mL in the test with Activin B [2] and 230 ng/mL with GDF-11 [3]. Also, the “IC50, BRE-luciferase reporter” value with BMP-9 [4] amounted to 4.2 µg/mL. For the same molecule, the dissociation constant (Kd) in the test with Activin A [5] came out at 0.048 nM; with Activin B [6] it was 0.0174 nM; in test [7] it was 0.122 nM; with GDF-11 [8], 6.65 pM; with BMP-9 [9], 2.55 nM; with BMP-10, 0.126 nM.

B6: ActRIIA-B1B4 (SEQ ID NO: 102) chimera-Fc protein (Fc fusion)
chain: GAILGRSETQECIYYNANWEKDRTNQTGVEPCYGDKDKRRHCFATWKNISGTIELVKKGCWLDDINCYDRTDCVEKKDSPEVYFCCCEGNMCNEKFSYFPEMEVTQPTS
notes: Tested as chimera-Fc protein; also called ActRIIA-B1β4; not shown: linker (if any) and Fc domain
For the molecule B6, the results for the “IC50, SBE-luciferase reporter” value in the test with Activin A [1], with Activin B [2] and with GDF-11 [3] were 750 ng/mL, 130 ng/mL and 260 ng/mL, respectively. Further, the “IC50, BRE-luciferase reporter” value in the test with BMP-9 [4] was more than 50 µg/mL. Moreover, the Kd came to 0.024 nM with Activin A [5]; 0.00531 nM with Activin B [6]; 0.125 nM in test [7]; 3430 pM in the test with GDF-11 [8]; 32.9 nM with BMP-9 [9]; 0.227 nM in the test with BMP-10.

B7: ActRIIA-A6 (SEQ ID NO: 108) chimera-Fc protein (Fc fusion)
chain: GAILGRSETQECLFFNANWEKDRTNQTGVEPCYGDKDKRRHCFATWKNISGSIEIVKQGCWLDDINCYDRTDCVEKEENPQVYFCCCEGNMCNEKFSYFPEMEVTQPTS
notes: as for B1
In the case of B7, the entries for the “IC50, SBE-luciferase reporter” value with Activin A [1], in the test with Activin B [2] and in the test with GDF-11 [3] were 330 ng/mL, 100 ng/mL and 77 ng/mL, respectively. Further, in the test with BMP-9 [4], the “IC50, BRE-luciferase reporter” value was found to be 8.8 µg/mL. The Kd with Activin A [5] is 0.032 nM; in the test with Activin B [6], 0.0558 nM; in test [7], 0.0682 nM; with GDF-11 [8], less than 1 pM; with BMP-9 [9], 49.7 nM; in the test with BMP-10 it was 0.347 nM.

B8: ActRIIB-A8 (SEQ ID NO: 126) chimera-Fc protein (Fc fusion)
chain: GRGEAETRECIYYNANWELERTNQSGLERCEGEQDKRLHCYASWRNSSGTIELVKKGCWLDDFNCYDRQECVATEENPQVYFCCCEGNFCNERFTHLPEMEVTQPTS
notes: as for B1
As to B8, the entries for the “IC50, SBE-luciferase reporter” value in the test with Activin A [10], with Activin B [11] and in the test with GDF-11 [12] were 230 ng/mL, 52 ng/mL and 130 ng/mL, respectively. In the test with BMP-9 [13], the “IC50, BRE-luciferase reporter” value stood at 3.6 µg/mL. For the same molecule, the Kd is 0.0442 nM with Activin A [5]; less than 0.001 nM with Activin B [6]; 0.00423 nM in [7]; less than 1 pM with GDF-11 [8]; 0.074 nM with BMP-9 [9]; 0.0292 nM with BMP-10.

B9: ActRIIB-B1B2B3B4 (SEQ ID NO: 119) chimera-Fc protein (Fc fusion)
chain: GRGEAETRECLFFNANWELERTNQTGVEPCEGEQDKRRHCFATWKNISGSIEIVKQGCWLDDFNCYDRQECVATEENPQVYFCCCEGNFCNERFTHLPEAGGPEVTYEPPPTAPT
notes: as for B1
For B9, the “IC50, SBE-luciferase reporter” value with Activin A [10] was 130 ng/mL; in the test with Activin B [11], 86 ng/mL; in the test with GDF-11 [12] it was 140 ng/mL. Moreover, in the test with BMP-9 [13], the “IC50, BRE-luciferase reporter” value was 0.36 µg/mL. The Kd was 0.0066 nM in the test with Activin A [5]; 0.0197 nM with Activin B [6]; 0.00354 nM in [7]; less than 1 pM in the test with GDF-11 [8]; 1.08 nM in the test with BMP-9 [9]; 0.369 nM with BMP-10.

Broadly, the Kd is the concentration at which binding is half-saturated. The low end stands for a tighter complex, the high end for a looser complex.

(Values after patent US20250270287A1 (KEROS THERAPEUTICS, published 2025).)
